Source: publication PMC10819241
Where two headings read alike, the source gives them in different places.

How the values were obtained:
[1] = biological target: CTB-DV1EDIII (after TEV cleavage of hRID-CTB-DV1EDIII) (not stated | dengue virus serotype 1 (DenKor-07 strain)) (UniProt P01556); test: SEC
[2] = biological target: CTB-DV1EDIII (after TEV cleavage of hRID-CTB-DV1EDIII) (not stated | dengue virus serotype 1 (DenKor-07 strain)) (UniProt P01556)
[3] = biological target: CTB-DV1EDIII (after TEV cleavage of hRID-CTB-DV1EDIII) (not stated | dengue virus serotype 1 (DenKor-07 strain)) (UniProt P01556); test: SDS-PAGE without DTT and boiling (native SDS-PAGE)

Measured: stoichiometry N

CTB-DV1EDIII (after TEV cleavage of hRID-CTB-DV1EDIII) (from UniProt P01556 22-124)
5: all assays above
